Data published in US20190353647A1 (UNIVERSITE DE BORDEAUX, published 2019).

Target: YFP-CaM (human, UniProt P0DP23 2-149)
Assay: BRET titration curves in live HEK293T cells

B1: TRPV1-Luc (receptor)
chain: MKKWSSTDLGAAADPLQKDTCPDPLDGDPNSRPPPAKPQLSTAKSRTRLFGKGDSEEAFPVDCPHEEGELDSCPTITVSPVITIQRPGDGPTGARLLSQDSVAASTEKTLRLYDRRSIFEAVAQNNCQDLESLLLFLQKSKKHLTDNEFKDPETGKTCLLKAMLNLHDGQNTTIPLLLEIARQTDSLKELVNASYTDSYYKGQTALHIAIERRNMALVTLLVENGADVQAAAHGDFFKKTKGRPGFYFGELPLSLAACTNQLGIVKFLLQNSWQTADISARDSVGNTVLHALVEVADNTADNTKFVTSMYNEILMLGAKLHPTLKLEELTNKKGMTPLALAAGTGKIGVLAYILQREIQEPECRHLSRKFTEWAYGPVHSSLYDLSCIDTCEKNSVLEVIAYSSSETPNRHDMLLVEPLNRLLQDKWDRFVKRIFYFNFLVYCLYMIIFTMAAYYRPVDGLPPFKMEKTGDYFRVTGEILSVLGGVYFFFRGIQYFLQRRPSMKTLFVDSYSEMLFFLQSLFMLATVVLYFSHLKEYVASMVFSLALGWTNMLYYTRGFQQMGIYAVMIEKMILRDLCRFMFVYIVFLFGFSTAVVTLIEDGKNDSLPSESTSHRWRGPACRPPDSSYNSLYSTCLELFKFTIGMGDLEFTENYDFKAVFIILLLAYVILTYILLLNMLIALMGETVNKIAQESKNIWKLQRAITILDTEKSFLKCMRKAFRSGKLLQVGYTPDGKDDYRWCFRVDEVNWTTWNTNVGIINEDPGNCEGVKRTLSFSLRSSRVSGRHWKNFALVPLLREASARDRQSAQPEEVYLRQFSGSLKPEDAEVFKSPAASGEKVPVNSGGGGS
notes: whole, on cells; BRET donor fusion, Luc at the C-terminus of TRPV1; transiently expressed in live HEK293T cells; also called hTRPV1-Luc; not shown: Renilla Luciferase II (Luc, Luc2, a mutant of Renilla reniformis luciferase)
- binding result: binds
